PMC9720079, “Identification and Characterization of a Bacteriocin from the Newly Isolated Bacillus subtilis HD15 with Inhibitory Effects against Bacillus cereus” (Journal of Microbiology and Biotechnology, 2022)
Ends that are not written are not given here.

Key:
[1] = test system: Shigella flexneri KCCM 11937; assay: Inhibitory spectrum, well diffusion method; assay type: cell-based; parameters: key: +++: Greater than 15 mm; −: no inhibition zone; details: inhibition zone class
Experimental: (§1) Antimicrobial activity against several gram-positive and gram-negative bacteria was assessed using the agar well diffusion method, with some modifications. Cultures were incubated in tryptic soy medium at 37°C for 60 h. Cell-free supernatants were prepared by centrifugation (3,800 ×g, 4°C, 30 min) and used as an antagonistic substance. Each pathogen at 7.0 log CFU/ml was spread on a TSA plate. An 8-mm-diameter well was created using a cork borer on the agar plate, and 50 μl of the cell-free supernatant was added to the wells. The plates were left undisturbed for a few hours to allow the supernatant to diffuse into the agar and then cultured at 37°C for 18 h. The diameter of the resultant growth inhibition zone was measured as a measure of antimicrobial activity.

[2] = test system: Vibrio parahaemolyticus KCCM 11965; assay: Inhibitory spectrum, well diffusion method; assay type: cell-based; parameters: key: +++: Greater than 15 mm; −: no inhibition zone; details: inhibition zone class
Experimental: as §1

[3] = test system: Pseudomonas aeruginosa KCCM 12539; assay: Inhibitory spectrum, well diffusion method; assay type: cell-based; parameters: key: +++: Greater than 15 mm; −: no inhibition zone; details: inhibition zone class
Experimental: as §1

[4] = test system: Shigella sonnei KCCM 41282; assay: Inhibitory spectrum, well diffusion method; assay type: cell-based; parameters: key: +++: Greater than 15 mm; −: no inhibition zone; details: inhibition zone class
Experimental: as §1

[5] = test system: Salmonella enteritidis CCARM 8206; assay: Inhibitory spectrum, well diffusion method; assay type: cell-based; parameters: key: +++: Greater than 15 mm; −: no inhibition zone; details: inhibition zone class
Experimental: as §1

[6] = test system: Vibrio vulnificus ATCC 29306; assay: Inhibitory spectrum, well diffusion method; assay type: cell-based; parameters: key: +++: Greater than 15 mm; −: no inhibition zone; details: inhibition zone class
Experimental: as §1

[7] = test system: Cronobacter sakazakii KCTC2949; assay: Inhibitory spectrum, well diffusion method; assay type: cell-based; parameters: key: +++: Greater than 15 mm; −: no inhibition zone; details: inhibition zone class
Experimental: as §1

[8] = test system: Salmonella choleraesuis KCCM 40736; assay: Inhibitory spectrum, well diffusion method; assay type: cell-based; parameters: key: +++: Greater than 15 mm; −: no inhibition zone; details: inhibition zone class
Experimental: as §1

[9] = test system: Escherichia coli O157:H7 ATCC 43894; assay: Inhibitory spectrum, well diffusion method; assay type: cell-based; parameters: key: +++: Greater than 15 mm; −: no inhibition zone; details: inhibition zone class
Experimental: as §1

B. cereus = assay: Antimicrobial activity in arbitrary units, serial 2-fold dilutions, of purification steps; assay type: cell-based, Bacillus cereus
Experimental: The protein content in the bacteriocin solution was measured using the modified Lowry method. A 50 μl volume of bacteriocin was mixed with 550 μl of biuret reagent (0.75 mM cupric sulfate and 94 mM sodium hydroxide) and incubated for 10 min at 25°C. A 25 μl volume of Folin–Ciocalteu’s phenol reagent (Sigma-Aldrich, USA) was then added, followed by incubation for 30 min at 25°C. Absorbance was measured at 725 nm using a VersaMax ELISA Microplate Reader (Molecular Devices, USA), and a standard curve was constructed using bovine serum albumin (Sigma-Aldrich). Antimicrobial activity was measured as arbitrary units per milliliter of purified microbial culture using serial 2-fold dilutions of the antimicrobial substance. […] AU/mL was calculated by multiplying AU by the dilution factor.

[10] = Temperature stability of bacteriocin, relative antimicrobial activity; assay type: physicochemical; details: for temperature range of stable activity: 12 h incubation; for Relative activity (%): 12 h, read-out agar well diffusion
Experimental: (§2) To evaluate the pH stability of the antimicrobial substance, the buffers were prepared with 0.1 M glycine-HCl buffer (pH between 2 and 4), 0.1 M sodium acetate buffer (pH between 4 and 6), 0.1 M sodium phosphate buffer (pH between 6 and 8), and 0.1 M Tris-HCl buffer (pH between 8 and 10). The antimicrobial substance was mixed with buffer at a ratio of 1:15 and incubated at 37°C for 12 h, and relative antimicrobial activity was measured. To evaluate temperature stability, purified bacteriocin was incubated at 0°C, 20°C, 40°C, 60°C, 70°C, 80°C, or 90°C for 12 h, and at 100°C for 1 h. Relative antimicrobial activity was assessed using the agar well diffusion method, and the zone of inhibition was measured in millimeters. To assess the effect of various enzymes on antimicrobial activity, lysozyme (E.C. 3.2.1.17), α-amylase (E.C. 3.2.1.1), lipase (E.C. 3.1.1.3), protease (E.C. 3.4.24.31), and proteinase K (E.C. 3.4.21.64) (all from Sigma-Aldrich) and pronase E (E.C. 3.4.24.4; Merck Millipore, USA) were prepared in sodium phosphate buffer (pH 7.0) at a final concentration of 4 mg/ml. Purified bacteriocin was mixed with each enzyme at 2 mg/ml and incubated at 37°C for 30 min, and the relative antimicrobial activity was measured.

lipase (E.C. 3.1.1.3) = assay: Effect of enzyme treatment on antimicrobial activity; assay type: in vitro ADME; details: 30 min
Experimental: as §2

α-amylase (E.C. 3.2.1.1) = assay: as above; assay type: in vitro ADME; details: 2 mg/ml, pH 7.0, 37°C, 30 min
Experimental: as §2

[11] = target: T1, proteinase K (E.C. 3.4.21.64) (Parengyodontium album, UniProt P06873); assay: as above; assay type: in vitro ADME; details: 30 min; for effect of proteinase K treatment on antimicrobial activity: 2 mg/ml, pH 7.0, 37°C
T1 construct: purchased Sigma-Aldrich
Experimental: as §2

[12] = test system: Staphylococcus aureus ATCC 25923; assay: Inhibitory spectrum, well diffusion method; assay type: cell-based; parameters: key to Antibacterial activity: +++: Greater than 15 mm; −: no inhibition zone
Experimental: as §1

gram-negative bacteria = assay: Inhibitory spectrum, well diffusion method, gram-negative bacteria as a group; assay type: cell-based
Experimental: as §1

[13] = test system: Bacillus cereus KCCM 12667; assay: Agar well diffusion test of purified bacteriocin; assay type: cell-based; details: Fig. 3C
Experimental: as §1
The molecular weight of bacteriocin was determined by tricine sodium dodecyl sulfate-polyacrylamide gel electrophoresis (SDS-PAGE; Bio-Rad, USA) at 100 V for 5 h on a 20% polyacrylamide gel with an ultra-low-range molecular weight marker (1,060–26,600 Da; Sigma-Aldrich), followed by silver staining (Amersham Biosciences, Sweden). Direct detection was then performed to determine whether the protein bands corresponded to bacteriocin [23].

[14] = test system: Listeria monocytogenes ATCC 15313; assay: Inhibitory spectrum, well diffusion method; assay type: cell-based; details: for antimicrobial activity against L. monocytogenes: well diffusion method
Experimental: as §1

[15] = test system: Bacillus cereus KCCM 40152; assay: Inhibitory spectrum, well diffusion method; assay type: cell-based; details: for antimicrobial activity against B. cereus: well diffusion method
Experimental: as §1

[16] = pH stability of bacteriocin, relative antimicrobial activity; assay type: physicochemical; details: 12 h; for Relative activity (%): substance:buffer 1:15, 37°C, read-out agar well diffusion
Experimental: as §2

[17] = listed as purified protein from B. subtilis HD15
[18] = well diffusion, inhibition zone class
[19] = listed as B. subtilis HD15 bacteriocin

T1 sequence (P06873 106-384): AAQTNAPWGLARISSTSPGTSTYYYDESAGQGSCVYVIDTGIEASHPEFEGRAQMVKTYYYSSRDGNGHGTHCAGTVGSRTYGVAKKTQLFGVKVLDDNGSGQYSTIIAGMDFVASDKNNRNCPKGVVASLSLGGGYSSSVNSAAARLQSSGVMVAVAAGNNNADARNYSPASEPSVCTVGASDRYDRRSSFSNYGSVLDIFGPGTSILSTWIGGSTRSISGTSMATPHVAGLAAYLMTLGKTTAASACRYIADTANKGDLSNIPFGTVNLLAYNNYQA

## SIGACLVDGPIPVIEG [bacteriocin from Bacillus subtilis HD15, 3.6 kDa bacteriocin related to subtilosin A, purified from B. subtilis HD15 culture by ammonium sulfate, DEAE-Sepharose and Sephacryl steps]
[1]
  Antibacterial activity: −
[2]
  Antibacterial activity: −
[3]
  Antibacterial activity: −
[4]
  Antibacterial activity: −
[5]
  Antibacterial activity: −
[6]
  Antibacterial activity: −
[7]
  Antibacterial activity: −
[8]
  Antibacterial activity: −
[9]
  Antibacterial activity: −
B. cereus; purification step from 500 ml culture, reciprocal of maximum 2-fold dilution giving a transparent zone, indicator strain not given
  Total activity (AU): 10,500 AU
B. cereus; total activity per total protein (modified Lowry) of purification step
  Specific activity (AU/mg): 413.4 AU/mg
[10]; 0–50°C for 12 h
  antimicrobial activity after incubation: 100%
[10]
  temperature range of stable activity: up to 70 °C
[10]; [17]
  temperature range of stable activity: 0–70 °C
[10]; after 12 h at 70°C and over a pH range between 3 and 9
  activity remaining: more than 70%
[10]; heat 50°C
  Relative activity (%): 100%
[10]; heat 60°C
  Relative activity (%): 95%
[10]; heat 70°C
  Relative activity (%): 70%
[10]; heat 80°C
  Relative activity (%): 20%
[10]; heat 90°C
  Relative activity (%): 0%
Lipase (E.C. 3.1.1.3); 2 mg/ml, pH 7.0, 37°C
  effect of lipase treatment on antibacterial activity: no effect
Lipase (E.C. 3.1.1.3); lipase 2 mg/ml, sodium phosphate buffer pH 7.0, 37°C, read-out relative antimicrobial activity
  Relative activity (%): 100%
α-amylase (E.C. 3.2.1.1)
  effect of amylase treatment on antibacterial activity: no effect
[11]
  effect of proteinase K treatment on antimicrobial activity: lost
[11]; [17]
  effect of proteinase K treatment on antimicrobial activity: completely inhibited
[11]; proteinase K 2 mg/ml, sodium phosphate buffer pH 7.0, 37°C, read-out relative antimicrobial activity
  Relative activity (%): 0%
[12]; well diffusion method
  antimicrobial activity against Staphylococcus aureus: no activity
[12]; [18]
  Antibacterial activity: −
gram-negative bacteria
  antimicrobial activity against gram-negative bacteria: no activity
[13]
  Antibacterial activity, zone around purified bacteriocin: clear zone
[14]; [19]
  antimicrobial activity against L. monocytogenes: strong inhibition
[14]; [17]
  antimicrobial activity against L. monocytogenes: high antimicrobial activity
[14]; [18]
  Antibacterial activity: +++ (Greater than 15 mm)
[15]; [19]
  antimicrobial activity against B. cereus: strong inhibition
[15]; [17]
  antimicrobial activity against B. cereus: high antimicrobial activity
[15]; [18]
  Antibacterial activity: +++ (Greater than 15 mm)
[16]; pH 2, 0.1 M glycine-HCl buffer
  Relative activity (%): 50%
[16]; pH 3, 0.1 M glycine-HCl buffer
  Relative activity (%): 80%
[16]; pH 3 to 9 as worded in text, 37°C
  antimicrobial activity remaining: 80%
[16]; pH 4, 0.1 M glycine-HCl or sodium acetate buffer
  Relative activity (%): 95%
[16]; pH 5, 0.1 M sodium acetate buffer
  Relative activity (%): 100%
[16]; pH 5–7, 37°C
  antimicrobial activity maintained: 100%
[16]; pH 6, 0.1 M sodium acetate or sodium phosphate buffer
  Relative activity (%): 100%
[16]; pH 7, 0.1 M sodium phosphate buffer
  Relative activity (%): 100%
[16]; pH 8, 0.1 M sodium phosphate or Tris-HCl buffer
  Relative activity (%): 95%
[16]; pH 9, 0.1 M Tris-HCl buffer
  Relative activity (%): 80%
[16]; pH 10, 0.1 M Tris-HCl buffer
  Relative activity (%): 30%
